Assay results as given in IntAct's records for PubMed 18084303.

Molecular target: Nlgn1, Q99K10-1
Sequence (Q99K10 whole entry): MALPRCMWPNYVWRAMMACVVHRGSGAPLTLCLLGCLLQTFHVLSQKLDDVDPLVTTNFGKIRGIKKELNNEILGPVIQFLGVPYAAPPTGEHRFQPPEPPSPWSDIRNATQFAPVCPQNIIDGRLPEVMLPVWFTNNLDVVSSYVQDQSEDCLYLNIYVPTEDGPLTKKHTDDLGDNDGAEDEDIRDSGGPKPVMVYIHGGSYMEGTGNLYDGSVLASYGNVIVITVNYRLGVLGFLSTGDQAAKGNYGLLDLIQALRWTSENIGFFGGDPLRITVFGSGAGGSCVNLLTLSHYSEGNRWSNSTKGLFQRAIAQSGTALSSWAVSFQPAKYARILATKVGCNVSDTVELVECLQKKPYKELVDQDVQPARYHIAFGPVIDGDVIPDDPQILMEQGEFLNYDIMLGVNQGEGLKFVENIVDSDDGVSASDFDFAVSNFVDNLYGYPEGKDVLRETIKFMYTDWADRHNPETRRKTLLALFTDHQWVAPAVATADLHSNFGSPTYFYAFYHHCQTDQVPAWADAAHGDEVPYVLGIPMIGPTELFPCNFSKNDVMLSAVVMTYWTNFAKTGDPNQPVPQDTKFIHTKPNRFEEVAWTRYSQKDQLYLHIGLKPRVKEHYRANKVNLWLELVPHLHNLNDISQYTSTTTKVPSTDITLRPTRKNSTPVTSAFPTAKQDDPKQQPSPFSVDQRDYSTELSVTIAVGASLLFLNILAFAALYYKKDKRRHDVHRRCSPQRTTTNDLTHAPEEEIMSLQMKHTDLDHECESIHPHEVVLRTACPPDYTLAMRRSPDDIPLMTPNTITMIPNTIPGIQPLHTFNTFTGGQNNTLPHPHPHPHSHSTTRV

Neurexin-1-beta (Homo sapiens), P58400-1 D141S, sequence (P58400 other isoform, or with tags, fused parts or gaps D141S): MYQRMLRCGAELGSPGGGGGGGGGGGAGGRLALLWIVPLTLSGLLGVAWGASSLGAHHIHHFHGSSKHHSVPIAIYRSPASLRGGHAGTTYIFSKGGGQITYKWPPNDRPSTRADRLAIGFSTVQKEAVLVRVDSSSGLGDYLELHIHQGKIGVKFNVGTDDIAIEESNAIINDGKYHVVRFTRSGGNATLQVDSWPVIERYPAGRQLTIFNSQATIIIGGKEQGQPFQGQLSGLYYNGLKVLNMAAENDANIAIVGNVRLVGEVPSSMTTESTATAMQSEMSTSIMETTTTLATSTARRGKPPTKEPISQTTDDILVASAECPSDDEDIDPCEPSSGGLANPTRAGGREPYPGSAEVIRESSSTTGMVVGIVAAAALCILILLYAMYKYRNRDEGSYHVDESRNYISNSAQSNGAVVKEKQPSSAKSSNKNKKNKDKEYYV
Neurexin-1-beta (Homo sapiens), P58400-1 S111R, sequence (P58400 other isoform, or with tags, fused parts or gaps S111R): as the sequence (P58400 other isoform, or with tags, fused parts or gaps D141S) above
Neurexin-1-beta (Homo sapiens), P58400-1 L240R, sequence (P58400 other isoform, or with tags, fused parts or gaps L240R): as the sequence (P58400 other isoform, or with tags, fused parts or gaps D141S) above
Neurexin-1-beta (Homo sapiens), P58400-1 L139R, sequence (P58400 other isoform, or with tags, fused parts or gaps L139R): as the sequence (P58400 other isoform, or with tags, fused parts or gaps D141S) above

effect of a mutation on the interaction | Substance
disrupting interaction | Neurexin-1-beta (Homo sapiens), P58400-1 D141S
disrupting interaction | Neurexin-1-beta (Homo sapiens), P58400-1 L139R
disrupting interaction | Neurexin-1-beta (Homo sapiens), P58400-1 L240R
disrupting interaction | Neurexin-1-beta (Homo sapiens), P58400-1 S111R
